Data reported in PMC5963676.
“Also recorded” adds a separate entry of the source.

Legend:
[1] = molecular target: His-tagged pantothenate synthetase with a C-terminal extension (PS-[LCGR]), expressed from pCA24N(-GFP) (E. coli); test: ITC
[2] = molecular target: His-tagged YfcD (putative Nudix hydrolase) expressed from pCA24N(-GFP) (E. coli); test: ITC
[3] = molecular target: His-tagged YfcD (putative Nudix hydrolase) expressed from pCA24N(-GFP); test: fluorescence polarisation

His-tagged YfcD (putative Nudix hydrolase) expressed from pCA24N(-GFP) (natural protein)
Kd [1]: 30 µM

His-tagged pantothenate synthetase expressed from pET28a (from UniProt P31663 1-283) (enzyme)
Kd [2]: 2.11 µM

B1: FITC-labelled His-tagged pantothenate synthetase (pET28a), labelled by sortase on the N-terminal glycine (protein)
chain: MLIIETLPLLRQQIRRLRMEGKRVALVPTMGNLHDGHMKLVDEAKARADVVVVSIFVNPMQFDRPEDLARYPRTLQEDCEKLNKRKVDLVFAPSVKEIYPNGTETHTYVDVPGLSTMLEGASRPGHFRGVSTIVSKLFNLVQPDIACFGEKDFQQLALIRKMVADMGFDIEIVGVPIMRAKDGLALSSRNGYLTAEQRKIAPGLYKVLSSIADKLQAGERDLDEIITIAGQELNEKGFRADDIQIRDADTLLEVSETSKRAVILVAAWLGDARLIDNKMVELA
K0.5 [3]: K0.5 = 1.87 ± 0.08 μM; also recorded: K0.5 2.16 ± 0.11 μM
